Experiment: yeast display, Sf9 membrane polyspecificity reagent, FACS + sequencing; frameworks hold sequencing errors
How it was run: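 Galactose induction of a Saccharomyces cerevisiae BJ5465 synthetic nanobody display library ran 36–48 hours. The cells were then stained for 1 hour at 4 °C with 10% biotinylated, detergent-solubilized Sf9 membrane reagent, pulled down on streptavidin microbeads and FACS-sorted into low and high (top ~1%) gates on expression and reagent-binding fluorescence. Labels for polyreactivity follow the gate of origin.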

Sequence | polyreactivity (PSR sort gate)
QVQIEESGGGLVQAGGSLRLSCAASGSTFGSYAMGWYRQAPGKEREFVAAISKRGGSTYYADSVKGRFTISRDNAKNTVYLQMNSLKPEDTAVYYCNRRQEYYSLHKTFNYWGQGTQVTVSS | high polyreactivity
QVQIEESGGRLVQAGGILRLSCAASGRPFNVNFKGWNRQAPGKEWELVAAIRYTGGSTYADSVKGRFTISRDNAKNTVYLQMNSLKPEDTAVYYCNADTVFPFDHGMDYWGQGTQVTVSS | low polyreactivity
QVQILESGGGLVQAEGSIRLSCDASGRTFRPYAMGWSRQAPGKDRELVAVISYSGVSTYYADSVKGRFTISRDTEQNNVYLLLNSQIPEDTAVYYCLIRFRKTHYDYWGQGSQVTVSS | high polyreactivity
QVQIVDSGAVIVQAGGSLRLSCDASGRIILINAMGWYRQAPGKERELVAAITSSGGSTYYADSVKGRFTISRDNAKNTVYLQMNSLKPEDTAVYYCAAARYSRYDYWGQGTQVTVSS | high polyreactivity
QVQIVDSGGGLVQAGCSLRLSCAASGFTFFSYAMGWYRQAHWKERELVAAISRSGGRKYYADSVKGRFTISRDNAKNTVYLLMNSLKPEDTAVYYCAAETKTIPFEYWGQGTQVTVSS | high polyreactivity
QVQIVDSGGGLVQAGGSLRLSCAASGRIIRGYAMGWYRQAPGKERELVAAITFSGGSPYYADSVKGRFTISRDNAKNTVYLHMNSLKPEDTAVYYCAAAYGGSSYEYNYWGQGTQVTVSS | low polyreactivity
QVQIVDSGGGLVQAGGSLSLSCAASGSTIYRYAMGWYRQAPGKERELVAAITSAGSTNYADSVKGRFTISRDNAKNTVYLQMNSLKPEDTAVYYCAADHGRPYFSYDYWGQGTQVTVSS | low polyreactivity
QVQIVESGAGLVQAGGSLSLSCAASGSIFHDNAMGWYRQAPGKERELVAAINRGGSRHYADSVKGRFTISRDNAKNTVYFQMNSLKPEDTAVYYCAADGIRPEVGYWGQGTQVTVSS | low polyreactivity
QVQIVESGGCLVQAGGSLRLICAASGNTFRWYDMGWYIQAPRKEREFVADITVRGGSTYYADSVKGRFTISRDNAKNTVYLQMNCLKPEDTAVYYCAVDFRRYPGFDYWGQGTQVTVSS | low polyreactivity
QVQIVESGGGIVQAGGSLRLSCAASGLTFHQYTMGWYRQAPGKERELVAAISSGGSTNYADSVKGRFTISRDNAKNTVFLQMNSLKPEDTAVYYCAADKYYFAYDYWGQGTQVNVSS | low polyreactivity
QVQIVESGGGLDQAGGSLRLSCADSGSILYYYAMGCYRQAPGKETELVATITDSGDSTYYADSVKGRFTISRDNAKNTVYLQMNSLKPEDTAVYYCAAEGRYFYFTVKMDYWGQGTQVTVSS | low polyreactivity
QVQIVESGGGLVQAGASLRLSCAASGSISKSYAMGWYRQAPGKERELVAAISWRGGSTYADSVKGRFTISRDNAENTVYSLMNSLKPEDTAVYYCAATNYGSFWGGQSERYDYWGQGTQVTVSS | low polyreactivity
QVQIVESGGGLVQAGCILRLSCAASGSTFYVNAMGWYRQAPGKEWELVAVISTGGSTYYADSVKGRFTISRDNAKNTVYLQMNSLKPEDTAVYYCAKRDLPDCSGTPNVIPFDYWGQGTQVTVSS | low polyreactivity
QVQIVESGGGLVQAGGRLRLSCAASGFTLYRYAMGWYRQAPGKEREFVAAITRTGGTTYYADSVKGRFTISRDNAKNTVYLQMNSLKPEDTAVYYCAAGANAWYSYRYDYWGQGTQVTVSS | high polyreactivity
QVQIVESGGGLVQAGGRLRLSCAASGGIFKTYPMGWYRQAPGKERELVARINSRGGRTYYADSVKGRFTISRDYAKKTVYLQMNSLKPEATAVYYCAVRNPRYFNEYDYWGQGTQVTVSS | low polyreactivity
QVQIVESGGGLVQAGGSLRFSCAASGRTFGTNTMGWYRQAPGKERELVATISSSSGSTYYADSVKGRFTISRDNAKNTVYLQMNSLKPEDTAVYYCAALSRWRYKRYDYWGQGTQVTVSS | high polyreactivity
QVQIVESGGGLVQAGGSLRISCAASGFTFRYYVMGWYRQAPGKEREFVAAISRSGGITYADSVKGRFTISRDNAKNTVYLQMNSLKPEDTAVYYCNAKSRTGYGRGDYWGQGTQVTVSS | high polyreactivity
QVQIVESGGGLVQAGGSLRISCAASGFTFYPYTMGWYRQAPGKEREFVAAISWNCGSTYYADSVKGRFTISCDNAKNTVYLQMNSLKPEDSAVYYCAKRSYRSSARELDYWGQGTQVTVSS | low polyreactivity
QVQIVESGGGLVQAGGSLRISCAASGRTFVYNTMGWSRQAPGKERELVAAITDRGTSTFYADSVKGRFTISRDNAKNTVDLQMNSLKPEDTAVYYCAKDWLVTEFDYWAQGTQVTVSS | low polyreactivity
QVQIVESGGGLVQAGGSLRISCAASGRTLRYNTMGWSRKAPGKERELVAAISIRGGSTYYADSVKGRFTISRDNAKYTVYLQMISLKAEDTAVYYCNVVFQKAARIVEVDYWGQGTQVSVSS | high polyreactivity
QVQIVESGGGLVQAGGSLRISCAPSGLIFAYYAMGRYRQAPGKERELVAAISSVGSTYYADSVKGRFTISRDNAKNTVYLQMNSLKPEDTAVYYCAAALYPYYWPEYNYWGQGTQVNVSS | high polyreactivity
QVQIVESGGGLVQAGGSLRLRCAASGLTFYVYVMGWYRQAPGKEREFVAAISYDGDSTYYADSVKGRFTISRDNAKNTVFFQMNSLIAEDTAVYYCNADRYPYWGYDYWGQGTQVTVSS | low polyreactivity

Sequence | polyreactivity (PSR sort gate)
QVQIVESGGGLVQAGGSLRLRCAASGSIFSTYAMGWYRQEPGKERELVADISGRVGSTYYADSVKGRFTISRDNAKNTVYLQMNSLKPEDTAVYYCAAALDFWPGYEYYYWGQGTQVTVSS | low polyreactivity
QVQIVESGGGLVQAGGSLRLSCAASGFIFGIYDMGWYRQAPGKERELYADSVKGRFTISRDNAKNTVYLQMNSVKPEDTAVYYCNRAQGVHTYVYRYGYWGQGTQVTESS | low polyreactivity
QVQIVESGGGLVQAGGSLRLSCAASGFIFVFNAMGWYRQAPGKERELVAAINGGDITNYADSVKGRFTISRDNAKNTVYLQMNSLKPEDTAVYYCAADGEDSLWTGYDYDYWGQGNQVTVSS | low polyreactivity
QVQIVESGGGLVQAGGSLRLSCAASGFTFPHNAMGWYRQAPGKERELVAAITSSGGSTYYADSVKGRFTISRDNAKNPVYLEMNSLKPEDTAVYYCAAYWAYGGYESWGQGTQVTVSS | high polyreactivity
QVQIVESGGGLVQAGGSLRLSCAASGFTFVINDMGWYRQAPGKERELVADITSGGDTYYADSVKGRFTISRDNAKNTVYLQMNSLKPEDTAVYYCAADIYPDWIYLLYGYWGQGTQVTVSS | low polyreactivity
QVQIVESGGGLVQAGGSLRLSCAASGITFTVYAMGWYRQAPGKVRELVAAINSGSSTNYADSVKGRFTISRDNAKNTVYLQMNSLNPEDTAVYYCAASYRKLPDKKRYGYWGQGTQVTVSS | high polyreactivity
QVQIVESGGGLVQAGGSLRLSCAASGNTISYYDMGWYRQAPGKERELVADISSGGSTYYADSLKGRFTISRDNAKNTVYLQMNSLKPEDTAVYYCNAVVYIRGTAGTYYYWGQGTQVTVSS | high polyreactivity
QVQIVESGGGLVQAGGSLRLSCAASGRIFGPYPMGWYRQAHVKERELVAAISCRGSSTYYADSVKGRFSISRDYAKNTVYLHMIILKPEDTAVFYCAKYPTYSYDYWGQGTQVTVSS | high polyreactivity
QVQIVESGGGLVQAGGSLRLSCAASGRIFGYNTMGWYRQAPGKERELVASISYYGGGPYYADSVKGRFTISRDLAKYTFYLQMNSLKPEDTAVYYCNALSYGYDDAYGYWGQGTQVTVSS | low polyreactivity
QVQIVESGGGLVQAGGSLRLSCAASGRIFRRYAMGWYRQAPGKEREFVAAISYGGGATYYADSVKGRFTISRDNAKNTFYLQMNSLKPEDTAVYYCNAEVPKSLLLYYPWGYGYWGQGTQVTVSS | low polyreactivity
QVQIVESGGGLVQAGGSLRLSCAASGRIFRVNWIGWYRQAPGKESELVAAIRRSGGSTYYADSVKGRFTISRDNAKNTVYLQMNSLKPEDTAVYFCAAPVRQSSYTRYDSWGQGTQVTVSS | high polyreactivity
QVQIVESGGGLVQAGGSLRLSCAASGRIFVVIAMGWYRQAPGKERELVATITRGASTYADSVKGRFTISRDNAKNTVYLQMNSLKPEDTAVYYCAAAKRPQVVRYDWTKLEYWGQGTQVTVSS | high polyreactivity
QVQIVESGGGLVQAGGSLRLSCAASGRIYRYVMGWYRQAPGKERELVATITGSGGSTYYADSVKGRFTISRDNAKNTAYLQMNSLKPEDTAVYYCAAAGRGSWTTYRFDYWGLGTQVTVSS | high polyreactivity
QVQIVESGGGLVQAGGSLRLSCAASGRNFGRYAMGWYRHAPRKERELVATISSGGSTYYADSVKGRFTISRDNAKNTVYLPMNSLKQEDTAVYYCAADYLSYYLYEGSIKYGYWGQGTQVSVSS | high polyreactivity
QVQIVESGGGLVQAGGSLRLSCAASGRTFLVNSMGWYRQAPGKEMELVAVITNGGSTYADSVKGRFTISRDNAKNTVYLQMNSLKPEDTAVYNCAARGNRWRSPSGSPYYYWGQGTQVTVSS | high polyreactivity
QVQIVESGGGLVQAGGSLRLSCAASGRTIGVYAMGWYRQAPRKERELVAAITGDGTKDYADSVKGRFRFSRAISKITVYLQMNSLKPEDTAVYYCAVGGAGSDDYWGQGTQVTVSS | low polyreactivity
QVQIVESGGGLVQAGGSLRLSCAASGRTYYYAMGWYRQAPGKERELVAAITESGDNTYYADSVKGRFTISRDNAKNTVYLQMNSLKPEDTAVYYCAVDYPSPSYYYEYYYWGQGTQVTVSS | high polyreactivity
QVQIVESGGGLVQAGGSLRLSCAASGSIFGYYVMGWNRQAPGKERELVAAISSGGGNTYYADSVKGRFTISRDNAKNTVYLQMISLKPEDTAVYYCAALRSWRKTGGAQRYWYDYWGHGTQVTVSS | high polyreactivity
QVQIVESGGGLVQAGGSLRLSCAASGSIFPHYAMGWYRQAPGKERELVAAISRGGSTNYADSVKGRFTISRDNAKNTVYLQMNSLKPEDTAVYYCNALRYYSRFLYAVAYRYDYWGQGTQVTVSS | high polyreactivity
QVQIVESGGGLVQAGGSLRLSCAASGSNFLFYVMGWYTQAPVKERELVAAINTGVSTNYADSVKGRFTISRDNAKNTVYLQLNSLKPEDTAVYYCNALPYTSDGRGGYWGQGSQVTVSS | low polyreactivity
QVQIVESGGGLVQAGGSLRLSCAASGSTFGDNAMGWSRQAPGKERELVAAITRSGGSTYYADSVKGRFTISRDTAKNTVYLHMHSLKPEDTAVYYCNADWYFQYPYDYGGQGTQVTVSS | low polyreactivity
